According to the Immune Epitope Database (IEDB):

Assays:
Test in all cases: IEDB peptide-MHC binding, purified MHC/competitive/radioactivity; filed as Kd, often an IC50 or EC50 that approximates it; ≥ and ≤ were set here for values at or beyond the usual limits of such assays
HLA-A*02:03 = target: HLA-A*02:03
HLA-A*02:02 = target: HLA-A*02:02
HLA-A*02:06 = target: HLA-A*02:06
HLA-A*11:01 = target: HLA-A*11:01
HLA-A*31:01 = target: HLA-A*31:01
HLA-A*68:01 = target: HLA-A*68:01
HLA-A*33:01 = target: HLA-A*33:01
HLA-A*03:01 = target: HLA-A*03:01
[1] = source organism: Vaccinia virus WR
[2] = source organism: SARS coronavirus Tor2
[3] = source organism: Dengue virus 3 Martinique/1243/1999
[4] = source organism: Mammarenavirus lassaense
[5] = source organism: HIV-1 M:B_ARV2/SF2
[6] = source organism: Mammarenavirus brazilense
[7] = source organism: Lymphocytic choriomeningitis virus (strain Armstrong)

Sequence | Kd (HLA-A*02:03; [1]) | Kd (HLA-A*02:02; [1]) | Kd (HLA-A*02:06; [1]) | further results
AAAATCALV | 9.05 nM | 14.6 nM | 12.5 nM | 
ALALEQYGI | 40 nM | 0.695 nM | 548 nM | 
ATFRDMLLNV | 0.398 nM | 7.06 nM | 3.03 nM | 
AVTLNRIKI | 3340 nM | 10800 nM | 7610 nM | 
DISSFYWSL | 6870 nM | 391 nM | 3970 nM | 
DMLKLFTHDI | 16.1 nM | 196 nM | 2970 nM | 
DVDMDFDLNI | 1520 nM | 2030 nM | 5820 nM | 
EATFIDVHI | 862 nM | 1660 nM | 3430 nM | 
ELLEMKYAL | 863 nM | 952 nM | 6010 nM | 
ELPYVGDTSM | 14200 nM | 4130 nM | ≥ 29900 nM | 
ETMYLTMKAI | 25.2 nM | 1320 nM | 3580 nM | 
ETQSGALEVL | 14500 nM | 5310 nM | 1580 nM | 
FAVGLLFRRL |  |  |  | Kd (HLA-A*02:06; source organism: Dengue virus 1 Brazil/97-11/1997): 20.4 nM
FLMSFTILCL |  |  |  | Kd (HLA-A*02:03; [2]): 213 nM; Kd (HLA-A*02:02; [2]): 0.821 nM; Kd (HLA-A*02:06; [2]): 74.4 nM
FVYVSVMNFI | 17.8 nM | 76.5 nM | 7.5 nM | 
GTIILNKIV | 3400 nM | 1190 nM | 1430 nM | 
GTSAAAYFV |  |  |  | Kd (HLA-A*02:03; [2]): 202 nM; Kd (HLA-A*02:02; [2]): 35.2 nM; Kd (HLA-A*02:06; [2]): 90.5 nM
IAACAMLLV |  |  |  | Kd (HLA-A*02:03; [2]): 387 nM; Kd (HLA-A*02:02; [2]): 320 nM; Kd (HLA-A*02:06; [2]): 131 nM
ILFILFFAYV | 366 nM | 132 nM | 1210 nM | 
ILLILSCIFA | 307 nM | 448 nM | 492 nM | 
IMAFILGIII | 3160 nM | 632 nM | 3190 nM | 
IMFMLIFNV | 10.2 nM | 0.146 nM | 13.1 nM | 
KINPLLDEPL | 304 nM | 53.4 nM | 18.6 nM | 
KLREVYTQL |  |  |  | Kd (HLA-A*02:03; [3]): 39.1 nM
KQIMECSRML | ≥ 29600 nM | 54.8 nM | 59.5 nM | 
KVIKLVKSLV | 13400 nM | 14300 nM | 2140 nM | 
LALWDSNFFT | 19900 nM | 11000 nM | 1250 nM | 

Sequence | Kd (HLA-A*02:03; [1]) | Kd (HLA-A*02:02; [1]) | Kd (HLA-A*02:06; [1]) | further results
LLALNDMGKV |  |  |  | Kd (HLA-A*02:03; [3]): 15 nM
LLEMKYALI | 135 nM | 354 nM | 14900 nM | 
LLKETIQKDI | 782 nM | 3060 nM | ≥ 23400 nM | 
LLMEGLKLLS |  |  |  | Kd (HLA-A*02:03; [4]): 39.5 nM; Kd (HLA-A*02:02; [4]): 78.3 nM; Kd (HLA-A*02:06; [4]): 1750 nM
LMAMDLGEL |  |  |  | Kd (HLA-A*02:03; source organism: Dengue virus 2 Peru/IQT2913/1996): 6.78 nM
LTFGWCFKLV |  |  |  | Kd (HLA-A*02:03; [5]): 167 nM; Kd (HLA-A*02:02; [5]): 910 nM; Kd (HLA-A*02:06; [5]): 20.1 nM
LTHGADPNA | 10500 nM | 19400 nM | ≥ 29400 nM | 
LVIGVAFLAV |  |  |  | Kd (HLA-A*02:03; [2]): 22.4 nM; Kd (HLA-A*02:02; [2]): 2710 nM; Kd (HLA-A*02:06; [2]): 2.6 nM
MAFILGIIIT | 2830 nM | 4680 nM | 10300 nM | 
MMNITRLEVI | 26.1 nM | 85.4 nM | 134 nM | 
MQVFFGYFA |  |  |  | Kd (HLA-A*02:03; [2]): 193 nM; Kd (HLA-A*02:02; [2]): 9.96 nM; Kd (HLA-A*02:06; [2]): 1.04 nM
NCLSLLLSV |  |  |  | Kd (HLA-A*02:03; [4]): 437 nM; Kd (HLA-A*02:02; [4]): 48.7 nM; Kd (HLA-A*02:06; [4]): 630 nM
NIREGTHVLL | 5510 nM | 8880 nM | ≥ 34600 nM | 
PIIYSKAGNI | 139 nM | 654 nM | 728 nM | 
QLEELEDEL |  |  |  | Kd (HLA-A*02:03; source organism: Homo sapiens): ≥ 68400 nM
QLSNNKYVL | 4940 nM | 78.5 nM | 10700 nM | 
RLYDYFTRVT | 551 nM | 2450 nM | 691 nM | 
SILSLETVKM | 455 nM | 203 nM | 806 nM | 
SINITPDDGL | 1230 nM | 413 nM | 0.343 nM | 
SISSVLTIL | 3.98 nM | 1.25 nM | 110 nM | 
SITPNNLNKI | ≥ 70400 nM | 14900 nM | ≥ 69800 nM | 
SLVSAGSGKV |  |  |  | Kd (HLA-A*02:03; [3]): 19.4 nM
SNPNLFWAV |  |  |  | Kd (HLA-A*02:03; [6]): 6150 nM; Kd (HLA-A*02:02; [6]): 170 nM; Kd (HLA-A*02:06; [6]): 34.6 nM
STDVNKQNK |  |  |  | Kd (HLA-A*11:01; [1]): 11.9 nM; Kd (HLA-A*31:01; [1]): 1180 nM; Kd (HLA-A*68:01; [1]): 290 nM; Kd (HLA-A*33:01; [1]): ≥ 77700 nM; Kd (HLA-A*03:01; [1]): 8970 nM
STGNYNYKYR |  |  |  | Kd (HLA-A*11:01; [2]): 1380 nM; Kd (HLA-A*31:01; [2]): 34.7 nM; Kd (HLA-A*68:01; [2]): 244 nM; Kd (HLA-A*33:01; [2]): 1090 nM; Kd (HLA-A*03:01; [2]): 2760 nM
STLLTWHMH |  |  |  | Kd (HLA-A*11:01; [7]): 258 nM; Kd (HLA-A*31:01; [7]): 4490 nM; Kd (HLA-A*68:01; [7]): 2720 nM; Kd (HLA-A*33:01; [7]): ≥ 77700 nM; Kd (HLA-A*03:01; [7]): ≥ 38200 nM
